Test results taken from patent US20130022605A1.

Target: hen egg lysozyme (hen) (UniProt P00698)
Test: ELISA on HEL at 3 mg/ml, detection with 9e10 and anti mouse IgG-HRP

Chain of hen egg lysozyme (hen) (P00698 19-147): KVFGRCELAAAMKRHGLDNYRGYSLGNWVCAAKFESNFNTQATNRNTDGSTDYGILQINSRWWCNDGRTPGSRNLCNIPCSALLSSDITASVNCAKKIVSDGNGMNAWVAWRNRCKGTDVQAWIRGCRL

B1: VH Cκ chain expressed alone (TAR2-5 Cκ) (protein, not shown: small tags and cut ends)
chain: EVQLLESGGGLVQPGGSLRLSCAASGFTFDLYNMFWVRQAPGKGLEWVSFISQTGRLTWYADSVKGRFTISRDNSKNTLYLQMNSLRAEDTAVYYCAKTLEDFDYWGQGTLVTVSS
  ELISA signal (background): 0.069
